Drawing on publication PMC4057019 (Matrix biology : journal of the International Society for …, 2014), this text covers Kd for 1 molecule.

In test [1] the target is recombinant human TLR-2 (Met1 to Leu590) (human, UniProt O60603 21-590, labeled with fluorophore NT-647). In words: MST.
The target in test [2] is recombinant human TLR-4 (Glu24 to Lys631) (human, UniProt O00206 24-631, labeled with fluorophore NT-647). In words: MST.
recombinant human TLR-4 (Glu24 to Lys631), sequence (O00206 24-631): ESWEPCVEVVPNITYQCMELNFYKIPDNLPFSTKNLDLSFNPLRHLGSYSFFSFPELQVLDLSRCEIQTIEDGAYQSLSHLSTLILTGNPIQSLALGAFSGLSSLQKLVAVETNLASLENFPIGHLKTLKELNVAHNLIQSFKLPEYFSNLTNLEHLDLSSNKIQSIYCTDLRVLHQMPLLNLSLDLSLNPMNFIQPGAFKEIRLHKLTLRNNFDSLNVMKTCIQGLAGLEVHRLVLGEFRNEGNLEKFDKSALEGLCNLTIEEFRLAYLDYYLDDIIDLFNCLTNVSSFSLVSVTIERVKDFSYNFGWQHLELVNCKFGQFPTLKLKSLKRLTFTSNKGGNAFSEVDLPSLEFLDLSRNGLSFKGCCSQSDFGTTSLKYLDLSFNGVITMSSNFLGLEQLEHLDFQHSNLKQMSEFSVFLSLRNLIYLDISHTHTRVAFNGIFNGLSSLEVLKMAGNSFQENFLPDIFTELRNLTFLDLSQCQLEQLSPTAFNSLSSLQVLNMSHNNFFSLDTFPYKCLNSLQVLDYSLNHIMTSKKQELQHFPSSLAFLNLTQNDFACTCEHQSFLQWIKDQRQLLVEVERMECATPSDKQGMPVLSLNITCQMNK

recombinant human TLR-2 (Met1 to Leu590), sequence (O60603 21-590): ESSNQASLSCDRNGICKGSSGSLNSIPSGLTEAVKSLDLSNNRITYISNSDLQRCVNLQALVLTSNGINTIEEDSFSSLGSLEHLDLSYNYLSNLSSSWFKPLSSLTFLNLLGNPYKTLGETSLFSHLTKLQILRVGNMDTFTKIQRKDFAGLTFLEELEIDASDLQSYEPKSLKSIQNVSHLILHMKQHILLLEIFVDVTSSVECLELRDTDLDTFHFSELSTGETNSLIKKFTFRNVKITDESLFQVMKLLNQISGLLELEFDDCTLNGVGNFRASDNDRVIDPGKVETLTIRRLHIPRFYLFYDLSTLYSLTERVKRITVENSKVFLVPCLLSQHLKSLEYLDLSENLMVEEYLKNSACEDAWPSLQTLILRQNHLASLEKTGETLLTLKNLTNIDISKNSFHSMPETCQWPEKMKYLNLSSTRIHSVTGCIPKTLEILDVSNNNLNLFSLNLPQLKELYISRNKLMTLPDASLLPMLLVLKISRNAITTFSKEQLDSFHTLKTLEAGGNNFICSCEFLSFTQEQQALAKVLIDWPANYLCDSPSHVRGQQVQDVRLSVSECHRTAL

B1: human biglycan (soluble biglycan proteoglycan) (natural protein, UniProt P21810 38-368, looked up)
chain: DEEASGADTSGVLDPDSVTPTYSAMCPFGCHCHLRVVQCSDLGLKSVPKEISPDTTLLDLQNNDISELRKDDFKGLQHLYALVLVNNKISKIHEKAFSPLRKLQKLYISKNHLVEIPPNLPSSLVELRIHDNRIRKVPKGVFSGLRNMNCIEMGGNPLENSGFEPGAFDGLKLNYLRISEAKLTGIPKDLPETLNELHLDHNKIQAIELEDLLRYSKLYRLGLGHNQIRMIENGSLSFLPTLRELHLDNNKLARVPSGLPDLKLLQVVYLHSNNITKVGVNDFCPMGFGVKRAYYNGISLFNNPVPYWEVQPATFRCVTDRLAIQFGNYKK
modifications: two chondroitin/dermatan sulfate chains
Regarding B1, the Kd (commonly the concentration at which binding is half-saturated) turned out to be 31 nM in test [1] and 28 nM in test [2].
